In IntAct's records for PubMed 20407420:

B1: Two-component response regulator-like APRR1 (Arabidopsis thaliana (Mouse-ear cress)), Q9LKL2 (parent)
chain: MDLNGECKGGDGFIDRSRVRILLCDNDSTSLGEVFTLLSECSYQVTAVKSARQVIDALNAEGPDIDIILAEIDLPMAKGMKMLRYITRDKDLRRIPVIMMSRQDEVPVVVKCLKLGAADYLVKPLRTNELLNLWTHMWRRRRMLGLAEKNMLSYDFDLVGSDQSDPNTNSTNLFSDDTDDRSLRSTNPQRGNLSHQENEWSVATAPVHARDGGLGADGTATSSLAVTAIEPPLDHLAGSHHEPMKRNSNPAQFSSAPKKSRLKIGESSAFFTYVKSTVLRTNGQDPPLVDGNGSLHLHRGLAEKFQVVASEGINNTKQARRATPKSTVLRTNGQDPPLVNGNGSHHLHRGAAEKFQVVASEGINNTKQAHRSRGTEQYHSQGETLQNGASYPHSLERSRTLPTSMESHGRNYQEGNMNIPQVAMNRSKDSSQVDGSGFSAPNAYPYYMHGVMNQVMMQSAAMMPQYGHQIPHCQPNHPNGMTGYPYYHHPMNTSLQHSQMSLQNGQMSMVHHSWSPAGNPPSNEVRVNKLDRREEALLKFRRKRNQRCFDKKIRYVNRKRLAERRPRVKGQFVRKMNGVNVDLNGQPDSADYDDEEEEEEEEEEENRDSSPQDDALGT
partner: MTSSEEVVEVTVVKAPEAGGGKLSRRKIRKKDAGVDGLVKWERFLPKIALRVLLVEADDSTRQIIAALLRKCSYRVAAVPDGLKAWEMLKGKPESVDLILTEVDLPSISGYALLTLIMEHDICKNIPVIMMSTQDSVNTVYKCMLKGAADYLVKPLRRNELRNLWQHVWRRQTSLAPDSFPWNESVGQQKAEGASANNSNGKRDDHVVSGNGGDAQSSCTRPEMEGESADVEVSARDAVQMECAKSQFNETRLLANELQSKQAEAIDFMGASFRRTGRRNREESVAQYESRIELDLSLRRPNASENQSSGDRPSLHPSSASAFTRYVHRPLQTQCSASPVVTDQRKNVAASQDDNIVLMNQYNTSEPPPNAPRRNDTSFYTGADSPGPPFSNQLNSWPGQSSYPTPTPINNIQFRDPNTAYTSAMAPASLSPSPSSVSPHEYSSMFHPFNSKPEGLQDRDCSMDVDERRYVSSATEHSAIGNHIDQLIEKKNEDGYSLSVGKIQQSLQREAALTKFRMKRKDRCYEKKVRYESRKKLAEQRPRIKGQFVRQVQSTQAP
B2: Two-component response regulator-like APRR1 (Arabidopsis thaliana (Mouse-ear cress)), Q9LKL2 (parent)
chain: B1 chain

Variants of: B1
Details: with aprr5_arath APRR5, Q6LA42

effect of a mutation on the interaction | Variant
decreasing interaction | P124S

Variants of: B1
Details: with aprr5_arath APRR5, Q6LA42
Remark: another data set of the same source

effect of a mutation on the interaction | Variant
disrupting interaction | P96L

Variants of: B2
Details: with ado1_arath ADO1, Q94BT6
ado1_arath ADO1, Q94BT6, sequence (Q94BT6 whole entry): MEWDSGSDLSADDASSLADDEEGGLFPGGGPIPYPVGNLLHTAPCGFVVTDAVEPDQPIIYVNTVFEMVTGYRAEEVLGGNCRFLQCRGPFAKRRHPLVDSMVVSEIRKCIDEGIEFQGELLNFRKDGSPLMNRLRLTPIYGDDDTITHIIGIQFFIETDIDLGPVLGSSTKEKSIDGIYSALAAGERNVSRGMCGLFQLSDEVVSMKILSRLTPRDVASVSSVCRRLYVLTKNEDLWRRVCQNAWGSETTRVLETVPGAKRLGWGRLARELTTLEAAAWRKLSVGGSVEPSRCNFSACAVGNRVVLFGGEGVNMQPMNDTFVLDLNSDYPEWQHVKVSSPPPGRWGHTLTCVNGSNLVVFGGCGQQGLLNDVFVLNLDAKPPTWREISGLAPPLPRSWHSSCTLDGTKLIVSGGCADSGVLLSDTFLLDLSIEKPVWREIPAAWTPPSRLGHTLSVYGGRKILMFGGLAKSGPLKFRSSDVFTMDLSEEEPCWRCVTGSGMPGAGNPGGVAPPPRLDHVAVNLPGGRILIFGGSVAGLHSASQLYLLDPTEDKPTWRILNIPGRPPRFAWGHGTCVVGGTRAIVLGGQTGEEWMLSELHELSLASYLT

effect of a mutation on the interaction | Variant
decreasing interaction | P96L
